Reference: the nanobody polyreactivity screen of Harvey et al. (2022)

Test: yeast display, Sf9 membrane polyspecificity reagent, FACS + sequencing; frameworks hold sequencing errors
Summary of the method: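 Using colony PCR, genes from sorted yeast display clones were amplified, then sequenced on MiSeq at 2 × 250 and filtered by CDR length. The clones had been stained with 10% biotinylated, detergent-solubilized Sf9 membrane reagent for 1 hour at 4 °C and sorted by FACS into low and high (top ~1%) gates on anti-HA and streptavidin fluorescence. Polyreactivity labels come from the gate of origin.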

| Sequence | polyreactivity (PSR sort gate) |
| --- | --- |
| QVQLVESGGGLVHAGGSLRLSCAASAFIFLFYTMGSYRQAPGKERELVAAITSVGNTNYADSVKGRFSISRDNAKNTVFLQINSLKPEDTAVYYCAADTTDPGGAYQLMDYWGQGTQVTLSS | low polyreactivity |
| QVQLVESGGGLVQAGGSLRLSCAASGSTLYRYAMGWYRQAPGKEREFVAAISVSGARTYYADSVKGRFTISRDNAKNTVYLQMNSLKPEDTAVYYCAARGGYQYDYWGQGTQVTVSS | high polyreactivity |
| QVHLVESGGGLVQAGGSLRLSCAASGFIFDFNTMGWYRQAPGKETEFVAAISGSGGRTYYADSVKGRFTISRDNAKNTVYLQMNSLKPEDTAVYYCAAYKRYYYGYDYWGQGTQVTVSS | high polyreactivity |
| QVQLVESGGGLVQAGGSLSLSCAAYGFTFERNGMGWYRQAPGKERELVAAISIRGGSTYYADSVKGRFTMSRDNAKNTVSLQMNSLKPEDTAVYYCAVVARRAFDYWGQGTQVTVSS | high polyreactivity |
| QVQLVESGGGLVQAGGSLRLSCAASGFTSKTNAMGWYRQAPGKERELVAGITRTGGSTYYADSVKGRFTISRDNAKNTVYLQMNSLKPEDTAVYYCAREYGDGYEYWGQGTQVTVSS | low polyreactivity |
| QVQLVESGGGLVQAGGSLRLSCAASGYIFGVYAMGWYRQAPGKERELVAAISIGGSTYYADSVKGPFTISRDNAKNTVYLQMNSLKPEDTAVYYCAARGWIRKTSSAYGYWGQGTQVTVSS | high polyreactivity |
| QVQLEESGGGVVQAGGSLRLTCAASASTSYNMGWYTQAPGKERELVAAISYPGGRTYYADSVKGRFTISRDNAKNTVYLQMTCLKPDDTGVYYCAKRIFVTFDSWGQGTQVTVSS | low polyreactivity |
| QVQLVESGGGLVQAGGSLRLSCAASGSIFRKNAMGWYRQAPGKETELVAAITGSGRTTYADSVKGRFTISRDNAKNTVYLQMNSLKPEDTAVYYCAADVNYYQHRLYYWGQGTQVTVSS | low polyreactivity |
| QVQLVESGGGLVQAGGSLRISCAASGFTFRSYAMGWYRQAPGKERELVAAISWRGGRTYYADSVKGRFTISRDNAKNTVYLQMNSLKPLDTAVYYCATDWYWGSYAPYTTRAHFDYWGQGTQVTVSS | high polyreactivity |
| QVQLVESGGGLVQAGGSLRISCAASGFIFTSKAMGWHRQAPGKERELVAAITKSGGSTYYADSVKGRFTISRDNAKNTVYLQMNSLKPEDTAVYYCAAYPTSRYKYEYWGQGTQVTVSS | high polyreactivity |
| QVQLVESGGGLVQAGGSLRLSCAASGRTFGRYAMGWYRQAPGKERDLVATITSGGSTNYADSVKGRFTISRDNAKNTVYLQMNSLKPVDTAVYYCAAEFSPSRWAYSEGALRYNYWGHGTQVTVSS | low polyreactivity |
| QVQLVESGGGLVQAGGSLSLSCAAYGSTFLRNAMGWYRQAPGKKGSWVATISYDGDSTYYADSVKGRFTISRDNAKNTVYLQMYSLKPEDTAVYYCAASYSLTFWDKDDYWGQGTQVTVSS | low polyreactivity |
| QVQLVESGGGLVQAGGSLRLSCAASGFTFPHYMGWYRQAPGKERELVAAINVSGGSTSYADSVKGRFTISRDNAKNTVYLQMNSLKPEDTAVYYCAKDLRFRLFSYPSDYWGQATQVTVSS | low polyreactivity |
| QVQLVESGGGLVQAGGSLRLSCAASGRIFVGYTMGWYRQAPGKERELVAAISSRGGRTNYADSVKGRFTISRDNAKNTVYLQMNSLKPEDTAVYYCATRLYPHQYYYWGQGSQVTVSS | high polyreactivity |
| QVQLVESGGGLVQAGGSLRLSCAASGIIFRNYAMGWYRQAPGKERELVATITGDGGSTYYADSVKGRFTISRDNAKNTVYLQMNSLKPEDTAVDYCAADRPYAGRYWKGYHSALYDYWGQGTQVTVSS | low polyreactivity |
| QVQLVESGGGLVQAGGSLRLSCAASGSIFIVYAMGWYRQAPGKERELVATITSGGSTNYADSVKGRFTISRDNAKNTVYLQMNSLKPEDTAVYYCAAESYWGSGVVPGYDYWGQGTQVTVSS | low polyreactivity |
| QVQLVESGGGLVQAGGSLRLSCAASGSLFFLYAMGWYRQAPGKDRELVAAISRTGSTYADSVKGRFTISRDNAKTTVYLQMNSVKPEDTAVYYCAAEYRYYWYGTMNYWGQCTQVTVSS | low polyreactivity |
| QVQLVESGGGLVQAGGSLRLSCAASGIIFSSYVMGWYRKATGKERELVAAISSRGVSTYYADSVKGRFTISRDNAKNTVYLQMNSLKPEDTAVYYCNAKDKQGRKQFKLCAGYYLGQGTQVTVSS | high polyreactivity |
| QFQLVESGGGLVQAGGSLRLSCAASGITFKTYAMGCYRQAPGKERELFATINRGSRTNYADSVKGRFTISRDNAKNTVYLQMNSLKPEDTAVYYCAAHYTTFIPSPDGDYLGQGTQVTVSS | low polyreactivity |
| QVQLVESGGGLVQAGGSLRLICAASGSIFITYAMGWSRQAPGKERELVAAIRRGGRTNYADSVKGRFTISRDNAKNTVYLQMNSLKPEDTAVYYCAAEFHTGWPYYPDYAYDYWGQGTQVTVSS | low polyreactivity |
| QVQLVESGGGLVQAGGSLRLSCAASGGTFYRYAMGWYRQAPGKEREFVASITQRGGRTYYADSVKGRFTISRDNAKNTVYLQMNSLKPEDTAVYYCAVEYYNYPNSRRYDYWGQGTQVTVSS | high polyreactivity |
| QVQLVESGGGLVQAGGSLRLSCAASGRIFKTYAMGWYRQAPGKERELDAAITASGGRTYYADSVKGRFTISRDNAKNTVYLQMNSLKPEDTAVYYCAADSGNEYDYWGQGTQVTVSS | high polyreactivity |

| Sequence | polyreactivity (PSR sort gate) |
| --- | --- |
| QDQLVESGGGLVQAGGSLRLSCAASGRTFAYKVMGWYRQAPGNERELVAANSRGGGRTYYADSVKGRFTISRDNAKNTVYLQMNSLKPEDTAVYYCNAASSGLSGRLTSIINDYWGQGTQVTVSS | high polyreactivity |
| QGQLVESGGGLVQAGGSLRLSCAAYGRIFYVYAMGWYRQAPGKERELVATITSSGDGTYYADSVKGRFTISRDNAKNTGYLQMNSLIPEDTAVYYCAARSWPYSQTGKRFVEYYYWGQGTQVSVSS | low polyreactivity |
| QVQLVESGGGLVHAGGSIRLSCAASGRIFDSNAMGRYRQAPGKEREVVAAITYSGGGTFYADSVKGRFTSSRDNAKNTVYLQMNCLKPEDTAVYYCNKLPHYFGPVYWFKGDDGYWGQGTQVTVTS | high polyreactivity |
| QVQLVESGGGLVQAGGSLRLSCAASGRIIKTNAMGWYRQAPGKERELVAAISSSGGRTYYADSVKGRFTISRDNAKNTVYLQMNSLKPEDTAVYYCAAPSLVSFGYWGQGTQVTVSS | high polyreactivity |
| QVQLVESGGGLVQSGGSLRLSCAASGFTFRFYAMGWYSQAPGKEREMVAAITSSGGSTFYADSVKGRFTISRDNAKNTVYLQMNSLKPEDTAVYYCAASVGREVGWGQGTQVTVSS | high polyreactivity |
| QVQLVESGGGLVQAGGSLRLTCAASGIIFSYNAMGWYRQAPGKERELVAAIRWSGDSTYYADSVKGRFTISRDIAKNTVYLQMNSMKPEDTAVYYCAAEFFLSYPRYEYWGQGTQVTVSS | low polyreactivity |
| QVQLVESGGGLVQAGGSLRLSCAASGSIFQGYAMGWYRQAPGKERELVAGITSSGGSTHYADSVKGRFTISRDNAKNTVYLQMNSLKPEDTAVYDYWGQGTQVTVSS | low polyreactivity |
| QVQLEDSGGGLVQAGGSLRLSCAASGFTFSYNAMGWYIQAPGKERELVAAISSRGTSTYYADSVKGRFTISRDNAKNTVYLQMNSLKPEDTAVYYCNTVPYFYLTFYPHYDYWGQGTQVTVSS | high polyreactivity |
| QVQLVESGGGLLQAGGSLRLSCAASGRTLGIYAMGWYRQAPWKERELVAAITLSGSDTYYADSVKGRFTISRDNAKNTVYLQMNSLKPEDTAVYDCAAKTYGGYGKYGYWGQGTQVTVSS | low polyreactivity |
| QFQLVESGGGLVQAGGSLRISCAASGSTFVLNAMGWYRQAPGKDREWVAAISQSDYSTYYSDSVKGRFTISRDNAKNTVYLQMNSLKPEDTAVYYSAREYAHLSFLSTSSDYWGQGTQVTVSS | low polyreactivity |
| QVQLVESGGGLVQAGGSLRLSCAASGRIFAFSAMGWSRQAPGKERELVAAISSGGSTYYADSVKGRFTISRDNAKNTVYLQMNSLKPEDTAVYYCAASGLYYYRYRYYYWGQGTQVTVSS | high polyreactivity |
| QVQLVESGGGLVQAGGSLRLSCAASGRIVSLNAMGWNRQAPGKERELVAGIRKRGRSTYYADSVKGRFTISRDNAKNTVYLQMNSLKPEDTAVYYCAAQPALTYRFYYWGQGTQVTVSS | high polyreactivity |
| QVQLVESGGGLVQAGGSLRLSCSASGSIFKYYTMGWYRQAPGKERELVASINGGGSTNYADSVKGRFTISRDNAKNTVYLQMNSLKPEDTAVYYCNARYWWQDGYWGQGTQLTVSS | high polyreactivity |
| QVQLVESGGGLVQAGGSLRLSCAASGSIFDRYAMGWYRQAPGKESELVAAITCGTSTYYADSVKGRFTISRDNAKNTVYLKMNSLKPEDTAVYYCNKGYSSSMDYWGQGTQVTVSS | low polyreactivity |
| QVQLLESGGGLVQAGGSLRLSCAASGFTFYRYAMGWYRQAPGKERELVAVISGSGTSTYYADSVKGRFTISRDIAKNTVYLQMNSLKQEDTAVYYCAASQSIFSGHVRYRVDYDSWGQGTQVSVSS | high polyreactivity |
| QVQLVESGGGLVQAGGSLRLSCAASGRNFRANAMGWSRQEPGKERELVASITYSGGSTYYADSVKGRFTISRDNAKNTVYVQMNSLKPEDTAVYYCARAGISSGGYYYWGQGTQVTVSS | low polyreactivity |
| QVQLVESVGGLVQAGGSLRLSCAASGFIIRYYAMGWYRQAPGKERELVAVISSNGARTSYADSVKGRFTISRDNAKNTVYLQMNSLKPEDTAVYYCNARAWSRFPPVGHDYWGQGTQVTVSS | high polyreactivity |
| QVQLVESGGGLVQAGGSLRLSCAASGSIFYVYAMGWYGQAPGKDRELVASISWGDSSTYYADSVKGRFTISRDTAKNTVYLQMNSLKPEDTAVYYCAADEYRQYALYDYWGQGTQVTVSS | low polyreactivity |
| QVQLVESGGGLVQAGGSLRLSCAASGSIFFQNAMGWYRQAPGKERELVATITSSVGSTYYADSVKGRFTISRDNAKNTVYFQMNSLKPEDTAVYYCNVRFFSAALWYTYFGYDYWGQGTQVTVSS | low polyreactivity |
| QVQLVESGGGLVQAGGSLRLSCAASGFIIGYYAMGWYRQAPGKERDLVAAISSTGGSTYYADSVKGRFTISRDNAMNTVYLQMNSLKPEDTAVYYCAKRFAYYRYHPGYDYWGQVTQVTVSS | high polyreactivity |
| QVQLVESGGGLVQAGGSLRLSCAASGITYSYNAMGWSRQAPGKERELVAAISSNSDSTYFADSVMGRFTISRDNAKNTVYLQMNSLKPEDTAVYYCAADTPDAAVYSGFYYWGQGTQVTVSS | low polyreactivity |
